{"source": "patent US20220332804A1", "about": "(CSL INNOVATION, published 2022)", "binders": {"B1": {"name": "RF16-226 (antibody, human IgG4 S228P, lambda)", "heavy": "not shown", "light": "SYELTQPPSVSVSPGQTARITCSGDALTSKYVAWYQQKSGLAPLLVIYEDTRRPSGIPAKFSGSSSGSVATLTISGAHGDDEADYYCYSTDASGHQRVFGGGTKLTVLSQPKAAPSVTLFPPSSEELQANKATLVCLISDFYPGAVTVAWKADGSPVKAGVETTKPSKQSNNKYAASSYLSLTPEQWKSHRSYSCQVTHEGSTVEKTVAPTECS", "notes": "pH-dependent anti-C2 antibody from a phage display library; also called WT"}}, "test_in_all_cases": "SPR, antibody captured, C2 as analyte;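 also: biacore SPR at 37 °C, anti-C2 mAbs captured via goat anti-human IgG on CM5 chips, double-referenced sensorgrams fit to a 1:1 kinetic or steady-state model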", "key": {"[1]": {"molecular_target": "T1, human C2 A709S (human, UniProt P06681 21-752)", "T1 sequence": "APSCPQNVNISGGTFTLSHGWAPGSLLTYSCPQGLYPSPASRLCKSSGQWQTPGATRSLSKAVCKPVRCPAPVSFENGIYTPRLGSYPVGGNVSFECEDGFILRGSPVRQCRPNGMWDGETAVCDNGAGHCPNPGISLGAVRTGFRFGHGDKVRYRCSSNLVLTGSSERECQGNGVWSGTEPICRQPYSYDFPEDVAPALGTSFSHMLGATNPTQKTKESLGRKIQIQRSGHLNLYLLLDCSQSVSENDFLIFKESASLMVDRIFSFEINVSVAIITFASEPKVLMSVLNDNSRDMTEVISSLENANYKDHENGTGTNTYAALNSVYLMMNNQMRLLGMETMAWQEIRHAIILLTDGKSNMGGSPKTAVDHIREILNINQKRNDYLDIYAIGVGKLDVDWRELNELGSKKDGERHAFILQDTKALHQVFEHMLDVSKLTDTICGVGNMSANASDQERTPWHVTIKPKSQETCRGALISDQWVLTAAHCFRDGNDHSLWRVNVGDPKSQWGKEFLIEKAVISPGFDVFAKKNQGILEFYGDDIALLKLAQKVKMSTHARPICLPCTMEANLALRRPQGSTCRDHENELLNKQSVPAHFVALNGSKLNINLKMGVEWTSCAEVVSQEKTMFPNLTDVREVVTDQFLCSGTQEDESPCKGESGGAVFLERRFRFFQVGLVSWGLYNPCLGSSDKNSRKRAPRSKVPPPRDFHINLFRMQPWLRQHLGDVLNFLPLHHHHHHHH", "procedure": "(§1) Surface plasmon resonance (SPR, Biacore) was used for all binding affinity analyses. In brief, goat anti-human IgG was directly immobilised onto the carboxymethyl dextran surface of CM5 sensorchips to approximately 12,000 RU using standard NHS/EDC chemistry at pH 5. The immobilised antibody surface was pre-conditioned with ten injections of polyclonal human IgG (Privigen 60 s) prepared at 1 μg/mL. Ligands (anti-C2 mAbs) were captured at the beginning of each cycle as described below. An adjacent spot or flow cell in which only Polyclonal IgG was capture was used as a reference surface. The goat anti-human IgG Fc antibody surface was regenerate in 100 mM H3PO4, injected for 45 seconds at the end of each cycle. Experiments were performed at 37° C. and the flow rate of each experiment was kept constant at 30 μL/min.\n(§2) Sensogram data was double-referenced against a reference anti-IgG surface (i.e. minus anti-C2 mAb) and blank buffer injections obtained within each experiment. The binding data was fit to 1:1 (kinetic or steady-state) model using local Rmax and null refraction index (RI=0) when appropriate. Buffers and solutions were filtered (0.22 μm) prior to use."}, "[2]": {"molecular_target": "T2, human C2 H446A (human, UniProt P06681 21-752)", "T2 sequence": "T1 sequence with H426A, S689A", "procedure": "as §1, §2"}, "[3]": {"molecular_target": "T3, human C2 N403A (human, UniProt P06681 21-752)", "T3 sequence": "T1 sequence with N383A, S689A", "procedure": "as §1, §2"}, "[4]": {"molecular_target": "T4, human C2 P650A (human, UniProt P06681 21-752)", "T4 sequence": "T1 sequence with P630A, S689A", "procedure": "as §1, §2"}}, "note": "Substitutions are numbered along the chain they refer to."}
{"binder": "B1", "values": [{"measurement": "Kd", "setting": "[1]", "value": 127, "unit": "nM"}, {"measurement": "Kd", "setting": "[2]", "value": 16.3, "unit": "nM"}, {"measurement": "Kd", "setting": "[3]", "value": 10.5, "unit": "nM"}, {"measurement": "Kd", "setting": "[4]", "value": 18.3, "unit": "nM"}]}
